Reference: article PMC4461315

These substances were tested against human complement Factor H (human) (UniProt P08603) (assay: SPR).
Sequence of human complement Factor H (human) (P08603 19-1231): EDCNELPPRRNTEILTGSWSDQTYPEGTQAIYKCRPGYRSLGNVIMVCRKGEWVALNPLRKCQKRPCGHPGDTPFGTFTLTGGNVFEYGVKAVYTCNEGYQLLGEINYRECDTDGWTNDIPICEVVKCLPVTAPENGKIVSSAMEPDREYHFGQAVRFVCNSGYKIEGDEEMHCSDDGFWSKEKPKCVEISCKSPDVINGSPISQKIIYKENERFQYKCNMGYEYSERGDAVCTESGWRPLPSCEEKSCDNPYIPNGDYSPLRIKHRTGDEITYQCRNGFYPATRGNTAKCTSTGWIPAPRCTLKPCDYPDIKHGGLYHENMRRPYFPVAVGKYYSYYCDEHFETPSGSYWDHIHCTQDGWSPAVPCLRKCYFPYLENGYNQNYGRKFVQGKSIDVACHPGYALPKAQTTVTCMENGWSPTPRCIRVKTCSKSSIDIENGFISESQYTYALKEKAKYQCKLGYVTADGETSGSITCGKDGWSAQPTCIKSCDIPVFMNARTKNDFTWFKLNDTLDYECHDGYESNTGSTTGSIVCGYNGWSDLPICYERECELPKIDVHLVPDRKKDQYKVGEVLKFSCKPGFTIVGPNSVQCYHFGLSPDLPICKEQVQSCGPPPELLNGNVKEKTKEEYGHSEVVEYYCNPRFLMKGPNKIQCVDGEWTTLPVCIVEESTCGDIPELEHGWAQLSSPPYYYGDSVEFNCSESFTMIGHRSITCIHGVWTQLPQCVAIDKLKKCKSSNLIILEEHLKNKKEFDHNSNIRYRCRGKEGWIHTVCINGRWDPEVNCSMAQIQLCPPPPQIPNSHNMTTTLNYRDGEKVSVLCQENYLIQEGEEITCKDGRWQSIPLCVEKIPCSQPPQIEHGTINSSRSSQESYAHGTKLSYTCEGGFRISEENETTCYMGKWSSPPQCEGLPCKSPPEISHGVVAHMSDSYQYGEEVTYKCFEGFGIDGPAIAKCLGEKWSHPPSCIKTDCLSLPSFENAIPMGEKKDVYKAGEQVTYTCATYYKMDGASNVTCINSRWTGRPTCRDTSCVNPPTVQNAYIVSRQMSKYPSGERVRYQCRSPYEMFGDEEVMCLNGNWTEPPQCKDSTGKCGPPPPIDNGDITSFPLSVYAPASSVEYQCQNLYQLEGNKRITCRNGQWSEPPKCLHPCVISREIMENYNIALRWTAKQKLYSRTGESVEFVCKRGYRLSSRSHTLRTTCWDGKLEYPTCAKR

| Substance | response units at 100 nM FHbp (response units) |
| --- | --- |
| FHbp ID 1 S223R mutant, soluble recombinant (from UniProt Q9JXV4 20-274) (natural protein) | < 2 |
| FHbp ID 1 H248L mutant, soluble recombinant (from UniProt Q9JXV4 20-274) (natural protein) | < 2 |
| FHbp ID 1 E92K mutant, soluble recombinant (from UniProt Q9JXV4 20-274) (natural protein) | < 2 |
